Data taken from paper PMC7511445 (Journal of immunology (Baltimore, Md. : 1950), 2020).
Changes are numbered by the printed parent chain. Numbers in names are those of the source.

B1: phosphorylated full-length human IRF-3 E388A (natural protein, UniProt Q14653 1-427, looked up)
chain: MGTPKPRILPWLVSQLDLGQLEGVAWVNKSRTRFRIPWKHGLRQDAQQEDFGIFQAWAEATGAYVPGRDKPDLPTWKRNFRSALNRKEGLRLAEDRSKDPHDPHKIYEFVNSGVGDFSQPDTSPDTNGGGSTSDTQEDILDELLGNMVLAPLPDPGPPSLAVAPEPCPQPLRSPSLDNPTPFPNLGPSENPLKRLLVPGEEWEFEVTAFYRGRQVFQQTISCPEGLRLVGSEVGDRTLPGWPVTLPDPGMSLTDRGVMSYVRHVLSCLGGGLALWRAGQWLWAQRLGHCHTYWAVSEELLPNSGHGPDGEVPKDKEGGVFDLGPFIVDLITFTEGSGRSPRYALWFCVGESWPQDQPWTKRLVMVKVVPTCLRALVEMARVGGASSLANTVDLHISNSHPLSLTSDQYKAYLQDLVEGMDFQGPGES
modifications: phosphorylated in vitro by GST-mTBK1; the phosphorylated residues are not listed
B2: phosphorylated full-length human IRF-3 S339A (natural protein, UniProt Q14653 1-427, looked up)
chain: B1 chain with S339A, A388E
modifications: phosphorylated in vitro by GST-mTBK1; the phosphorylated residues are not listed
B3: phosphorylated full-length human IRF-3 R285A (natural protein, UniProt Q14653 1-427, looked up)
chain: B1 chain with R285A, A388E
modifications: phosphorylated in vitro by GST-mTBK1; the phosphorylated residues are not listed
B4: phosphorylated full-length human IRF-3 H290A (natural protein, UniProt Q14653 1-427, looked up)
chain: B1 chain with H290A, A388E
modifications: phosphorylated in vitro by GST-mTBK1; the phosphorylated residues are not listed
B5: phosphorylated full-length human IRF-3 H288A (natural protein, UniProt Q14653 1-427, looked up)
chain: B1 chain with H288A, A388E
modifications: phosphorylated in vitro by GST-mTBK1; the phosphorylated residues are not listed
B6: phosphorylated full-length human IRF-3 H290A/K313A (natural protein, UniProt Q14653 1-427, looked up)
chain: B1 chain with H290A, K313A, A388E
modifications: phosphorylated in vitro by GST-mTBK1; the phosphorylated residues are not listed
B7: phosphorylated full-length human IRF-3 R285A/K313A (natural protein, UniProt Q14653 1-427, looked up)
chain: B1 chain with R285A, K313A, A388E
modifications: phosphorylated in vitro by GST-mTBK1; the phosphorylated residues are not listed
B8: phosphorylated full-length human IRF-3 K313A (natural protein, UniProt Q14653 1-427, looked up)
chain: B1 chain with K313A, A388E
modifications: phosphorylated in vitro by GST-mTBK1; the phosphorylated residues are not listed
B9: phosphorylated full-length human IRF-3 H288A/H290A/K313A (natural protein, UniProt Q14653 1-427, looked up)
chain: B1 chain with H288A, H290A, K313A, A388E
modifications: phosphorylated in vitro by GST-mTBK1; the phosphorylated residues are not listed
B10: phosphorylated full-length human IRF-3 S396A (natural protein, UniProt Q14653 1-427, looked up)
chain: B1 chain with A388E, S396A
modifications: phosphorylated in vitro by GST-mTBK1; the phosphorylated residues are not listed

Target: the molecule itself
Assay: SEC

| Protein | binding result |
| --- | --- |
| B1 | binds |
| B2 | binds |
| B3 | binds |
| B4 | binds |
| B5 | binds |
| B6 | binds |
| B7 | binds |
| B8 | binds |
| B9 | binds |

Target: the molecule itself
Assay: native gel or EMSA

| Protein | binding result |
| --- | --- |
| B10 | binds |
